The values that follow come from paper PMC8109800.

For orientation: Kd means the free concentration of one partner at which half of the binding sites on the other are occupied at equilibrium, for simple one-to-one binding.

In data set [1] the test system is Chl1 full-length (Chaetomium thermophilum). Briefly: fluorescence anisotropy. The settings on record: no plateau reached, low affinity; 50 mM HEPES pH 8.0, 50 mM NaCl, 0.5 mM TCEP, 25 C; 10 nM FAM-DNA; quadratic fit. (Fluorescence polarisation rises when a labelled molecule tumbles more slowly, as on binding a larger partner.)
Data set [2] deals with MiniChl1V2 (Chaetomium thermophilum). As to the kind of experiment: fluorescence anisotropy. The settings on record: 50 mM HEPES pH 8.0, 50 mM NaCl, 0.5 mM TCEP, 25 C; 10 nM FAM-DNA; quadratic fit.

For 22-mer ssDNA, the Kd is over 1 µM in data set [1] and 0.038 µM in data set [2].
